In patent US20020028202A1 (Biogen, published 2002):
Positions count from the first letter of the chain named.

Tests used:
Test in all cases: staining of transfected COS-7 cells, FACS
[1] = target: T1, human gc chain mutant, NDK replaced by Ala (Domain 1 Loop CC), myc-tagged, on COS-7 cells (human, UniProt P31785 23-369)
T1 construct: whole, on cells; not shown: 9 amino acid myc tag at the 5' end of the construct
T1 sequence (looked up): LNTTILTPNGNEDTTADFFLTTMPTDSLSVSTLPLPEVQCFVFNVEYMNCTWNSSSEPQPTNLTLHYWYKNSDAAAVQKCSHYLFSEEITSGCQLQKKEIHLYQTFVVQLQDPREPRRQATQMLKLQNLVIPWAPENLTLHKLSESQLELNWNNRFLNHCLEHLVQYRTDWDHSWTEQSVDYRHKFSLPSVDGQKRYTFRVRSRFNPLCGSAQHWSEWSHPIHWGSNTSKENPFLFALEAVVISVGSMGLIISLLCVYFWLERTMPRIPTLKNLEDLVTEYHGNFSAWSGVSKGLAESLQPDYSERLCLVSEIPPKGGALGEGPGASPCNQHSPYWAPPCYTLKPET
Description: (§1) COS-7 cells are transiently transfected with 20 ug of DNA encoding the gc chain mutant or wildtype cDNA and 180 ug of herring sperm carrier DNA. After 2-3 days, COS-7 cells are harvested and analyzed by immnunofluorescent staining with anti-gc chain mAbs. MAbs are used at 10 ug/ml in PBS-1% BSA-0.02% sodium azide and allowed 30 minutes to bind to 1×10⁶ COS-7 cells. Cells are then washed 2 times, and bound mAb is detected with PE-conjugated goat anti-mouse Fc specific antibodies. The % of positive cells staining with the anti-gc chain mAb over an irrelevant control Ig is determined for a given gc chain mutant and for wildtype gc chain. […] Data are adjusted for any differences in level of expression of a mutant vs. wildtype constructs by measuring the binding of a mAb specific for a 9 amino acid myc tag engineered at the 5′ end of each gc chain construct. […] Values reduced from 100% indicate amino acid mutations which affect mAb binding.
(§2) The value “100%” indicates no effect of mutation and lower percentages indicate greater losses in binding as a result of the sequence change.

[2] = target: T2, human gc chain mutant, IHL replaced by Ala (Domain 1 Loop EF), myc-tagged, on COS-7 cells (human, UniProt P31785 23-369)
T2 construct: whole, on cells; not shown: 9 amino acid myc tag at the 5' end of the construct
T2 sequence (looked up): T1 sequence (looked up) with A74N, A75D, A76K, I100A, H101A, L102A
Description: as §1, §2

[3] = target: T3, human gc chain mutant, LYQ replaced by Ala (Domain 1 Loop EF), myc-tagged, on COS-7 cells (human, UniProt P31785 23-369)
T3 construct: whole, on cells; not shown: 9 amino acid myc tag at the 5' end of the construct
T3 sequence (looked up): T1 sequence (looked up) with A74N, A75D, A76K, L102A, Y103A, Q104A
Description: as §1, §2

[4] = target: T4, human gc chain mutant, VIP replaced by Ala (interdomain residues), myc-tagged, on COS-7 cells (human, UniProt P31785 23-369)
T4 construct: whole, on cells; not shown: 9 amino acid myc tag at the 5' end of the construct
T4 sequence (looked up): T1 sequence (looked up) with A74N, A75D, A76K, V130A, I131A, P132A
Description: as §1, §2

[5] = target: T5, human gc chain mutant, SAQ replaced by Ala (Domain 2 Loop FQ), myc-tagged, on COS-7 cells (human, UniProt P31785 23-369)
T5 construct: whole, on cells; not shown: 9 amino acid myc tag at the 5' end of the construct
T5 sequence (looked up): T1 sequence (looked up) with A74N, A75D, A76K, S211A, Q213A
Description: as §1, §2

- % binding to mutant gc chain/wildtype gc chain [1]: 71%
- % binding to mutant gc chain/wildtype gc chain [2]: 0%
- % binding to mutant gc chain/wildtype gc chain [3]: 13%
- % binding to mutant gc chain/wildtype gc chain [4]: 21%
- % binding to mutant gc chain/wildtype gc chain [5]: 111%
B1: CP.B8 monoclonal antibody (murine anti-human gc chain, hybridoma ATCC HB-12107) (antibody, V domains shown)
VH: LQESGPGLVAPSQSLSITCTVSGFSLTSYGVHWVRQPPGKGLEWLGVIWAGGSTNYNSALMSRLNINRDNSKSQIFLKMNSLQTDDTAIYYCAREGSTVDSMDYWGQGTTVT
VL: DIVMTQSHKFMSTSVGDSITITCKASQDVTTAVAWYQQKPGQSPKLLIYWASTRHTGVPDRFTGSGSGTDYTLTISSVQAEDLALYYCQQHYITPWTFGGGTKLEI
notes: Used unconjugated and biotin-conjugated; also called CP.B8 mAb; mAb CP.B8
